For 17 sequences, protein production results are on record in a protein production outcome set (Wang et al. 2014).

The data set is described as follows: label from the status in PepcDB records.
Take “MKKRKLLAVTLLSTILLNSAVPLVVADTSLRNNTSSTDQPTTADTATDAESETAKKDKKSKETASQHDTQKDHKPSHTHPTPPSNDTKQTDQASSEATDKPNKDKNDTKQPDSSDQSTSSPKDQSSQKESQNKDGRPTPSPDQQKDPTPDKTPEKSADKIPEKATEKTPEPNRDAPKPIQPPLAAAAPVFIPWRESDKDLSKLKPSSRSSAAYVRHWTGDSAYTHNLLSRRYGITAEQLDGFLNSLGIHYDKERLNGKRLLEWEKLTGLDVRAIVAIAMAESSLGTQGVAKEKGANMFGYGAFDFNPNNAKKYSDEVAIRHMVEDTIIANKNQTFERQDLKAKKWSLGQLDTLIDGGVYFTDTSGSGQRRADIMTKLDQWIDDHGSTPEIPEHLKITSGTQFSEVPVGYKRSQPQNVLTYKSETYSFGQCTWYAYNRVKELGYQVDRYMGNGGDWQRKPGFVTTHKPKVGYVVSFAPGQAGADATYGHVAVVEQIKEDGSILISESNVMGLGTISYRTFTAEQASLLTYVVGDKLPRP”: the protein production result is “failed”.

For “MKKRLLKSFSFSYNSQDENRRLLERLMQYKSKDADKLNEENESIIRKRSAKLKRDLEDAVREPSSSSNAASSPGAASLQRNSSPAQFVGGLIGDEDFDEAAINGAMEAIGLDDNEYISARFTAGEIAENSRASIDTLKATGYLGQANPTKILMKFEAHENESHAVRWSPVERMVATGGADRKVKLWDIGKNSTEPRAVLSGSSAGINSVDFDSTGAYILGTSNDYGARVWTVMDNRLRHTLTGHSGKVMAAKYVQEPIKVVTGSHDRTLKIWDLRSIACIETKFAGSSCNDLVTTDSLGSTIISGHYDKKIRFWDIRTEKQADDVLMPAKITSLDLSKDCNYLICSVRDDTIKLLDLRKNQVISTFTNEHFKISCDFARASFNSSGLKIACGSADGAIYIWNVNGFLEATLKGHSTAVNAVSWSPNNNMLASVGKNKRCTIYSES”, the protein production result was “failed”.

Regarding “MKKRLSLDRRFLPYIKKAGGVLVKKQMGAYVSLAAAMAIVGSSVVVGKLMVERIPVFLSSGLRFLIASVVLLMLLFCIEKGFPALTKKDVFVLLVQSFTGVFLFSICLLYGVQYTTGTESGILTSTTPMLIGILSFFLLREKIEKKTLIGILLAVCGVMAINLFGAGSQDGTPHALFGNMLIIAAVIGEALFTLMAKLLSPHISALAISTFVSLFGFLFFLPFALFEASSFDYSVPTVLDWSYVLYYALFVTVLAFYLWYSGVTKVPAGVSGIFTSVLPVSAVILSGVILKEPFEFVHFIGIACVIGGIFVTVIKKKQPDAYPAAEEKTL”, the protein production entry is reported as “failed”.

Take “MKKSLCLSFFLTFSNPLQALVIELLEEIKTSPHKGTFKAKVLDSKKPRQVLGVYNISPHKKLTLTITHISTAIVYQPLDEKLSLETTLNPNRPTIPRNTQIVFSSKELKESHPHQMPSLNAPMQKPQNKPHSSQQPSQNFSYPEPKLGSKNSKNSLLQPLAIPSKISPTNETQTPTNDTKPPLKHSSEDQESNLFITPPTEKTLPNNTSNADISENNESNENKDNVEKQAIRDANIKEFACGKWVYDDENLQAYRPSILKRVDEDKQTATDITPCDYSTAENKSGKIITPYTKISVHKTEPLEEPQTFEAKNNFAILQARSSTEKCKRARARKDGTTRQCYLIEEPLKQAWESEYEITTQLVKAIYERPKQDDQVEPTFYETSELAYSSTRKSEITHNELNLNEKFMEFVEVYEGHYLNDIIKESSEYKEWVKNHVRFKEGVCMALEIEEQPRAKSTPLSIENSRVVCVKKGNYLFNEV”: the protein production entry is “failed”.

As to “MKKSLDEHAERFSDHADAYDEDQDSAAYRACVNFVVDHAAPESDDVVLDLGTGTGAIAFALASDAAEIIGRDISDGMLEKAREKADGRGVENVSFGDGRFRAPNVDRPVDIVTSNFAMHHLGDDEKREAIDTIADLGPRRIVLGDVMLFGDDDPDAPFYSPEVDDPATVGVLADAFTDAGYALTAVEMVTEQAGVLVAERVKSDLEHHHHHH”, the protein production entry is “not failed”.

Regarding “MKKSLVVCALSAAVLLSGCETVNTTSGGVVGVDRKQSMFSMVSSAEVNQSYAQSYQQTLGEASSQGVLDKTSANAKRLQVIANRLIAQAPTFRPDCAQWKWEVNLIKSDELNANCGPGGKIIFYSGLIEKLKLTDDEIAAVMGHEIAHALREHGREAMSKQYAVGAGKQIATLFGVPQETVALGDNGVNLLMTLPNSRENENEADLIGLELAARAGYNPNAAISLWNKMGQAAGGSAPPEFMSTHPASTSRIASLQAAIPKVMPLYQAAKKSLEHHHHHH”, the protein production entry is given as “failed”.

On to “MKKTLILGATPETNRYAYLAAERLKSHGHEFIPVGRKKGEVLGKTIINERPVIEGVDTVTLYINPQNQLSEYNYILSLKPKRVIFNPGTENEELEEILSENGIEPVIGCTLVMLSAGT”, for which the protein production entry is recorded as “failed”.

As to “MKKTTLALSALALSLGLALSPLSATAAETSSATTAQQMPSLAPMLEKVMPSVVSINVEGSTTVNTPRMPRNFQQFFGDDSPFCQEGSPFQSSPFCQGGQGGNGGGQQQKFMALGSGVIIDADKGYVVTNNHVVDNATVIKVQLSDGRKFDAKMVGKDPRSDIALIQIQNPKNLTAIKMADSDALRVGDYTVAIGNPFGLGETVTSGIVSALGRSGLNAENYENFIQTDAAINRGNSGGALVNLNGELIGINTAILAPDGGNIGIGFAIPSNMVKNLTSQMVEYGQVKRGELGIMGTELNSELAKAMKVDAQRGAFVSQVLPNSSAAKAGIKAGDVITSLNGKPISSFAALRAQVGTMPVGSKLTLGLLRDGKQVNVNLELQQSSQNQVDSSSIFNGIEGAEMSNKGKDQGVVVNNVKTGTPAAQIGLKKGDVIIGANQQAVKNIAELRKVLDSKPSVLALNIQRGDSTIYLLMQ”, the protein production entry is recorded as “failed”.

As to “MKKVIAGLAAASVVGVAVPGMDSAQAQVSNEALKEINGQTQTQTTVTETKTVETKSDLKYTVTADVLNVRSGAGTGHSVISKVKQGQVLQVIGQENGWFKVTVNGQTGYVSGDFVTTGGKTGTTVQQGTGTYTVNVSSLNVRTGPSTSHTVLGSVNKGKTVQVVSEVQDWFKINFNGGTGYVSKDFVTKGGSAVSNQTQQPTTNNNTTTVQTGGSYVVNTGALKVRTGPATYNAVIGGVTNGTVLNVTGAENGWYKINHNGRTGYVSADFVKFVKGGVNNVTNNVQQPVKDVQKPTTGGNTSSIAGFARSLNGSPYRTAGTTPAGFDCSGFIHYVLNQTGHKGARQTVAGYWSSKTKTSNPQPGDLVYFQNTYKSGPSHMGVYLGNGQFISAETDATGVRISSVSNSYWSKHLLGYTKAYLEHHHHHH”, the protein production entry is “failed”.

In the case of “MKKVRFLLLAAMVAMFTGCQKEVAEQELDNNKPTPTGDTRIIIEGEGMIGPVTRSSDGKVEFEGGYATGAGLYNGDAQPKVAAHPDAGYEVNYFYGGPENELHRYDYAQSGSSTFDVKLKGEDHTFRCGFKEKKRNLTVNTGTGGSVSPAGTNSYRVEKAISITATPDSGYEFAGWTITEGDVTIENPGSPATTATLHNDNSTITANFKSGAELVFTVRASANKIVPMPVLGSGPYIIDYGDGTVAQEVDLRAPGYTQYPGSYHTYSADGEYTVTIKGPAATAFSFRGTRNSDLQYTNPCPAKSILKNTIDISCVTSLENAFSGMKSLESIKCDLFESCKGRVTTCANIFDQCTNLHTIYNGLFEGFDKCTDFSLAFHYTALNSIPANTFRGCSSAVKFNSTFSAIPNILSIPAGLFDDCVNAQEFASTFELLNISTVPERLFAKCVKATFFRGTFRQSHVTTVPGNVFENCRAIENVSSCFENCSWITSLPEMWNTSLYPKIKTYNAFAKNCNKASNYSAVPAAWK”, the protein production result is on record as “failed”.

In the case of “MKKWRFLGIDDSFDDRKCCVVGCVTCGGYVEGFLYTEIDIDGLDATDKLISMVRRSKFREQIKCIFLPGITLGGFNLVDIQRVYRETKIPVVVVMRRKPDMEEFDSAMRNLENYELRRKIVEVAGEIHRIGDIYIQTAGLTPSEAEKLVKASLIKGNMPEPVRISHLVASAIIHGESR”, the protein production result is “not failed”.

In the case of “MKKYFLKCGYFLVCFCLPLIVFANPKTDNERFFIRLSQAPLAQTLEQLAFQQDVNLVIGDILENKISLKLNNIDMPRLLQIIAKSKHLTLNKDDGIYYLNGSQSGKGQVAGNLTTNEPHLVSHTVKLHFAKASELMKSLTTGSGSLLSPAGSITFDDRSNLLVIQDEPRSVQNIKKLIAEMDKPIEQIAIEARIVTITDESLKELGVRWGIFNPTENARRVAGSLTGNSFENIADNLNVNFATTTTPAGSIALQVAKINGRLLDLELSALERENNVEIIASPRLLTTNKKSASIKQGTEIPYIVSNTRNDTQSVEFREAVLGLEVTPHISKDNNILLDLLVSQNSPGSRVAYGQNEVVSIDKQEINTQVFAKDGETIVLGGVFHDTITKSEDKVPLLGDIPVIKRLFSKESERHQKRELVIFVTPHILKAGETLEALKQKSEGKKLEHHHHHH”, the protein production entry was “failed”.

For “MKLAASLNRLSPKRLFRTKSKASVSRSEPSSFSSNASSSSSDGSYGNLKQGPTATPISVLPQNSGDFYTELVQAFKLIDRDDDGVVSRGDLAALISRLSHEPPSQEEVSLMLREVDGGDGGCISLEDLASRVAGTSGEGSVETEELREVFEIFDVDRNGKISAEELHRVFGVIGDERCTLEECMRMIATVDGNGDGFVCFDDFCRMMVPAMNDHHH”, the protein production entry is given as “failed”.

Consider “MKLAIVTACPGGQVTSVLAARLLRGAAERLGWETCVEANAGSRPEGELSAEQIAEADWVLLVGVEPLAAARFVGKPVYRARPAEALADPRAFLQRAAALASVEVAGDEAGLVAPEAGAAPRIVAVTACPTGVAHTFMAAEALQLAAGQLGFALQVETQGSVGARNPLDPADIAAADVVLLAADIDVDTARFAGKKIYRCGTGVALKQARATLERALAEGQVESAGAASAVVARDEKRGVYKHL”, for which the protein production result is “failed”.

“MKLAVISSIYKNDSLSKIKQSLQSLLNQENVTCDIYLYCDGPVSIDIVHFLDSFDQNSLYIFKQEQNRGLAHALNELLNIVLTKEYEYIARMDADDISMPERFVKQIAFMNSHPDIDCLGTWAIEIDDDGKEYFRKKMPITHEECLELFKKRDCMIHPTVMFRRSYFEKAGLYPEDTYFGEDTMMWAKGFKSGCKFANVPEYLFKFRLDSNFFERRRGWKHAKSIYTLRHRVNRMLGFGWKEDCYALLYAMAKLMPKSILDIIYKTVR”: the protein production entry is on record as “failed”.

As for “MKLERFYRDTILLTMSNFATGILKFIFSVILSEKLGAEGVGLYQLIMPVYDLFCCLVCGGLNIAVSRKVAILSGKNDYSNVNSLIKISSLFCFIWSSLVAVILFFNSRFISNSFIKDMRSLYSLELICPALIFVTISAILKGYFYGISKAKVPAYIDILEKASRVGIVIAIINIFMLKSISKTVTAVYGVLSLGEFISLIALYIAFLIYRRNLRPVYSDRESSGQLIFDVFSVSIPLCINSFVSSLLAAASTLILPVRLVHAGFLHSEALSLIGKFSGMALIVTSFPVVIIVAMSTVLIPEISQNLNKRDYYSIEKRVTQVLKISFFLGTITMIIALSIPNLLGKLFFSRNDLGNYIAASALSVPVDYTSFATFSILSGLGKQNKLLINSLIVSIEQLILLYVLTGIRFINIYGYAITLFVTCLTAYILNMKEIRKVCYIRFSFVDMFIDTLLCILVYLILSILNNIVPNRFILPKTLFIIILGFVLFTFAITKIKDKLK”, the protein production result was “failed”.

Regarding “MKLFFTDGQFAVAGYSRPDVPFLCDAEMELVDAPNRYLRYIATVKGRTRAANTWRTYGAALYEFFAFLEANGLAWDRVDQSQIAAWRDTMLERGCARSTVNQRLRTVDAFYNWAKSNGMTHSIPFDRTDVWVAKPRGFLAHVDASGDRFEANSLTVQTHKVTPQFLHLDRAIRFLDALTPYRMRLMGYLALLTGMRREEVVSMDCRVLPNPAGRDSNKQIPMHLDPSITPTKGEKDRTVMLPYDLAVALYQYFTFERSRLLAKHRAKFGIETTLLFLSQTGDPLSVNGLNNAFRRVSQKTGIWCTPHMLRHTFGTYELMRMSRQKTQTQALLWVRDRMGHNSITTTEIYVHAADLVEHDDVDGYHLDICRALAHGNPTSKT”, the protein production result is on record as “failed”.
